Experiments:
[1] = biological target: T1, human complement component C3 (human, UniProt P01024 23-1663); assay: cell-based or functional assay
[2] = biological target: T1, human complement component C3; assay: cell-based or functional assay; remark: listed apart in the source

| Binder | IC50 (read off the curve); classical pathway C3b deposition ELISA, human plasma [1] | also measured |
| --- | --- | --- |
| ICVWQDWGAHRCTK (not fully specified; N-terminal acetyl; 1-methyl-Trp at 4; disulfide Cys2-Cys12; AEEAc after Thr13; Lys15 side chain coupled to linear 40 kD mPEG (NOF SUNBRIGHT ME-400HS); C-terminal amide) [CA28-AEEAc-Lys(mPEG40K-hexanoyl)] | ~600 nM | – |
| ICVWQDWGAHRCTK (not fully specified; N-terminal acetyl; 1-methyl-Trp at 4; disulfide Cys2-Cys12; AEEAc after Thr13; Lys15 side chain coupled to linear 40 kD mPEG (NOF SUNBRIGHT ME-400CS); C-terminal amide) [CA28-AEEAc-Lys(mPEG40K-succinyl)] | ~600 nM | – |
| ICVWQDWGAHRCTK (not fully specified; N-terminal acetyl; 1-methyl-Trp at 4; disulfide Cys2-Cys12; AEEAc after Thr13; Lys side chain coupled to one end of a bifunctional linear 40 kD PEG of the GS type (NHS-OCO(CH2)3COO-PEG-CO(CH2)3COO-NHS); C-terminal …) [CA28-2GS-BF] | – | Q1 (Type III cells with high C3d deposition) % Parent, modified Ham's assay, 50 ug/ml [2]: 0.01%; Q2 (Type I and II cells with high C3d deposition) % Parent, modified Ham's assay, 50 ug/ml [2]: 0.01%; Q3 (Type III cells without significant C3d deposition) % Parent, modified Ham's assay, 50 ug/ml [2]: 61.5%; Q4 (Type I and II cells without significant C3d deposition) % Parent, modified Ham's assay, 50 ug/ml [2]: 38.5% |
| ICVWQDWGAHRCTK (not fully specified; N-terminal acetyl; 1-methyl-Trp at 4; disulfide Cys2-Cys12; AEEAc after Thr13; Lys15 side chain coupled to linear 40 kD mPEG (NOF SUNBRIGHT ME-400GS); C-terminal amide) [CA28-AEEAc-Lys-(PEG40k)] | ~600 nM | – |
| ICVWQDWGAHRCTK (not fully specified; N-terminal acetyl; 1-methyl-Trp at 4; disulfide Cys2-Cys12; AEEAc after Thr13; Lys15 side chain coupled to linear 40 kD mPEG (NOF SUNBRIGHT ME-400TS); C-terminal amide) [CA28-AEEAc-Lys(mPEG40K-carbonyl)] | ~600 nM | – |

Source: US20230091471A1 (APELLIS PHARMACEUTICALS, published 2023)
